Measurements taken from patent US20060083742A1.

What was measured:
[1] = molecular target: CFP-Bcl-XL (human) (UniProt Q07817); test: FRET on mitochondria of bryostatin-1 treated Cos-1 cell, with the fluorophores as the legend of FIG. 5A names them
[2] = molecular target: YFP-Bcl-XL (human) (UniProt Q07817); test: acceptor-photobleaching FRET on single mitochondria of living cells after PKC agonist

Substance “YFP-K-Ras12V (from UniProt P01116 1-186)” has an FRET efficiency [1] of 17%.
For “CFP-K-Ras12V (from UniProt P01116 1-186)”, the FRET efficiency [2] was 17%.
